Measured values from article PMC6434023, “A TonB-dependent transporter is required for secretion of protease PopC across the bacterial outer membrane” (Nature Communications, 2019).

Biological target: T1, PopC expressed in E. coli (M. xanthus, UniProt Q1DFT5 1-475)
T1 construct: PopC of Myxococcus xanthus, expressed as 'native' PopC in E. coli; no tag is named; 'Native' probably means the untagged whole protein; also called native PopC; source: E. coli Rosetta-2(DE3) (WT or ΔtonB), IPTG-induced, in isolated membranes / cell fractions
T1 sequence (looked up): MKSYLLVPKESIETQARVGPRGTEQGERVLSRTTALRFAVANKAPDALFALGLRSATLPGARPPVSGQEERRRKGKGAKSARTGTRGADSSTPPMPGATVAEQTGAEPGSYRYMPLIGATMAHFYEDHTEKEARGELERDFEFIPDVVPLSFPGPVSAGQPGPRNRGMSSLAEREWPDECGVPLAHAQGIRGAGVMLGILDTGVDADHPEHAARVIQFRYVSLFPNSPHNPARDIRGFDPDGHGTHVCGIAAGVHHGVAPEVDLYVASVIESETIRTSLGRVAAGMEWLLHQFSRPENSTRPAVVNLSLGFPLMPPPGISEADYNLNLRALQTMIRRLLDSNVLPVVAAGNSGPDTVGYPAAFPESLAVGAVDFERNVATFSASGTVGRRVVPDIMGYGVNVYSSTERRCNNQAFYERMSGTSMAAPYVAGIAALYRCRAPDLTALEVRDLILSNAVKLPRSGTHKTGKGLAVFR
Experiment: affinity purification with mass spectrometry; the co-IP samples (α-PopC on E. coli membranes, WT and ΔtonB) analysed by label-free quantitative MS; iBAQ ratio of Oar with PopC over without PopC, normalised to the input
Conditions: partners not purified

fold enrichment of Oar in the α-PopC co-IP, with PopC over without PopC (iBAQ ratio), WT E. coli: 4.9 fold
fold enrichment of Oar in the α-PopC co-IP, with PopC over without PopC (iBAQ ratio), ΔtonB E. coli: 15.1 fold
B1: Oar expressed in E. coli (natural protein, M. xanthus, UniProt P38370 27-1061, looked up)
chain: QSSTIIGTVIDAQSRQPAADVVVTATSPNLQGEQTVVTDAQGNYRIPQLPPGDYTLRFEKEQFKPYARSAIQLRLNRTIRVNVELLPEALGEVVEIVGAPPTIDVGSTTMGVNVDQEFIKRIAVARPGGKGGATRSFESLAELAPGAQNDNYGVSINGSTSPENGYVVDGLSTNDPAFGVNASPLSIEFVQDVNIITGGYMPEFGRSTGGVINAVTRSGSNEFHGSVFANWTPGTLEGTRKQIREEGTVITGQNQLQNLGDFGATLGGPILKDKLWFFAGFAPSFTRYQHTRTLNALRVDDEGNTIKDETDFTVADAIPGSARKYYADSRTIQYMGKLTYLINQDHNVSFALNGTPTSTGGLGKLSVNPQSGGLPGVLATRPGDFGLTETKANTTSLALKYAGAFADKKVLVDANLGWFHQTASTLPGDGSNLGDRTGLAGYSRMVYTTPRALTLFEALPEGQEGACGSTPEEQLVRSPVTGYGVGGPGFMSDQTLDRYQANAKATYLLNALGTHVFKAGVDVELLSFDQVKAYGGGVFFQEGSNYGVAGQGPAVHDARRYGYQTGPDSAVTQFTQVAKTTSTTVGGFLQDSWSIANRVTLNLGVRYDVQALYGGNGDLSLLLGNQWSPRIGAIVDPFANGRAKVFVNFARYYEQVPLNLMDRAFPGENRISARRSLAEPGQGTATSCDPSSFESQQATCNTDSNLLAIPESSRNVNRFYTGGTVGGTPVDPDIKAQSSDEIVVGAEYEVLANTRLGASYTHKDMNSVIEDMSRDDGNTYFLGNPGSGFAGEFPTPVRNYDNVTVYLNRTFADGWLAQANYTWSRLYGNYPGLFRPETGQLDPNILSDFDLIELLENRTGLLPFDRTHQIKVFGAKEFNISNALSASVGVSYRGSSGTPINYWGSHWAYLQDESFVLPRGAGGRTPWINTIDSNIGVNYRVSKDSVVSFTLDVFNLFNFQGVNTVDQTYTLRDIKPIPGGTPADLENLPGRVEFQDQAPRDEPFGSVDGDVNKNFKNPLSYQAPRQVRFGIRYTF
notes: Oar (MXAN_1450) of Myxococcus xanthus, expressed as 'native' Oar in E. coli; no tag is named; 'Native' probably means the untagged protein with its own signal peptide; it was found enriched in the E. coli outer membrane; also called native Oar; source: E. coli Rosetta-2(DE3) (WT or ΔtonB), IPTG-induced, in isolated membranes / cell fractions
